Measurements: publication PMC3114041, “Architectures of archaeal GINS complexes, essential DNA replication initiation factors” (BMC Biology, 2011)

B1: Thermococcus kodakaraensis Gins51 (natural protein, UniProt Q5JF31 1-188, looked up)
chain: MDIVKLRELLEAELSSTDLNELDEDFYVEFDSLIKALKLSAESSRERGEDVEERLYLAQLKIAESLMKEIIKLRLHKIVDLAVEGKIAEMTAEEKRLFNVIRAFIEREELPEISEEVQPQEESEAEAEYRSKEVPKEAYIIQIDLPAVLGPDMKEYGPFMAGDMAIIPTVIGRALVEREAARRVRIFL
notes: Gins51 subunit of the GINS complex of Thermococcus kodakaraensis; gins51 gene cloned into pET21a; also called TkoGins51; AB-type subunit of TkoGINS; source: E. coli codonPlus (DE3)-RIL, co-expressed with Gins23, purified (heat 80°C, HiTrap Phenyl, hydroxyapatite, HiTrap Q)
B2: Thermococcus kodakaraensis Gins23 (natural protein, UniProt Q5JIT2 1-164, looked up)
chain: MFTGKALIAVKVMKPFGDWKSGDIVLVEDWKARELWEAGVVEIVDETDKIIGEIDKVIAEERESEPLTLLPEGLYERAEFYAYYLENYVRLNPRESVDTINVKLTKLANLRKKLRDLKLIRFNKILKAVMLRPNSLELLSRLAPEERRIYLQMSKIRNEWLGDA
notes: Gins23 subunit of the GINS complex of Thermococcus kodakaraensis; gins23 gene cloned into modified pET28 (thrombin site replaced by a TEV protease site); 94 to 100 and 132 to 133 missing); The final atomic model holds seven amino acids derived from the N-terminal tag; also called TkoGins23; BA-type subunit of TkoGINS; source: E. coli codonPlus (DE3)-RIL, co-expressed with Gins51, purified (heat …
B3: Thermoplasma acidophilum GINS subunit (TacGins) (natural protein, UniProt Q9HJC8 1-233, looked up)
chain: MKPADIDKLISEIRTAIYAEQSHRKIIEIDPDIYRKVRAALSDLQAEASEYFQKQDIENYLTMNNRFQTLKRDFRSLFQRRFEKIVAKAIYDISGETLSLLTDEEKEFIEKIHNIITEEFESFIPKREEKNEARAEAQPAPADESPTAIADQKPQEEPQVVQDQHQPPAEIPSENIEIKKEDGRYVLVMITEDLPPIAQLDRNYSLHSNDLVYLPQDLASILAKRKVALVLDQ
notes: TacGins, conserved hypothetical protein of Thermoplasma acidophilum, gene Ta1042 cloned into pET21a; the homology model counts residues 1 to 233; also called Ta1042; source: E. coli BL21 codonPlus (DE3)-RIL, purified (heat 60°C, polyethyleneimine, HiTrap Phenyl, HiTrap Q)

Tests used:
[1] = molecular target: Thermococcus kodakaraensis Gins51ΔC (Met1-Arg130) (Thermococcus kodakaraensis); test: SEC; Superdex 200 PC 3.2/30 on a SMART system; 50 mM Tris-HCl pH 8.0, 0.15 M NaCl, 7 mM β-mercaptoethanol, 0.1 mM EDTA; 20 μl of each protein at 20 μM; fractions on SDS-PAGE
[2] = molecular target: the molecule itself; test: as above
[3] = molecular target: the molecule itself; test: SEC + other: electron microscopy; data not shown (Ogino et al.)

| Molecule | stoichiometry N [2] | other results |
| --- | --- | --- |
| Thermococcus kodakaraensis Gins51ΔC (Met1-Arg130) (domain or fragment) | – | stoichiometry N [1]: 2 |
| B1 | 2 | – |
| B2 | 2 | – |
| B3 | – | stoichiometry N [3]: 4 |
